The record followed here is article PMC2781463 (The Journal of Biological Chemistry, 2009).

The assay addresses Blom7α-His6 (pET-30a(+)) (human, UniProt Q7Z7F0-1 1-614). The assay can be described thus: pull-down.

B1: GST-SNEV^Prp19-Pso4 (natural protein)
chain: MSLICSISNEVPEHPCVSPVSNHVYERRLIEKYIAENGTDPINNQPLSEEQLIDIKVAHPIRPKPPSATSIPAILKALQDEWDAVMLHSFTLRQQLQTTRQELSHALYQHDAACRVIARLTKEVTAAREALATLKPQAGLIVPQAVPSSQPSVVGAGEPMDLGELVGMTPEIIQKLQDKATVLTTERKKRGKTVPEELVKPEELSKYRQVASHVGLHSASIPGILALDLCPSDTNKILTGGADKNVVVFDKSSEQILATLKGHTKKVTSVVFHPSQDLVFSASPDATIRIWSVPNASCVQVVRAHESAVTGLSLHATGDYLLSSSDDQYWAFSDIQTGRVLTKVTDETSGCSLTCAQFHPDGLIFGTGTMDSQIKIWDLKERTNVANFPGHSGPITSIAFSENGYYLATAADDSSVKLWDLRKLKNFKTLQLDNNFEVKSLIFDQSGTYLALGGTDVQIYICKQWTEILHFTEHSGLTTGVAFGHHAKFIASTGMDRSLKFYSL
With B1, the binding result is reported as “binds”.
